Source: patent US20160053025A1 (SAMSUNG ELECTRONICS, published 2016)

Key:
BSA = target: T1, BSA (Bos taurus, UniProt P02769); assay: Complex ELISA: plate coated with BSA, 10D6 2 ug/ml with or without FLAG-Ang2 0.25 ug/ml, anti-mouse IgG-HRP, OD450
T1 construct: commercial preparation; also called Bovine serum albumin; Sigma
Description: (§1) A 96-well MaxiSorp™ flat-bottom plate (Nunc) was coated with 4 μg/ml of Tie2-Fc (R&D systems) or BSA (Sigma). Then, the plate was washed five times with 0.05% (v/v) Tween-20-containing PBS (Phosphate Buffer Saline) and blocked with 1% (v/v) BSA (Bovine serum albumin; Sigma)-containing PBS at a room temperature for 2 hours. 0.25 μg/ml of Ang2 and 2 μg/ml of 10D6 antibody were added to each well of the plate, which was allowed to react at a room temperature for 2 hours and then washed five times with PBST. After that, an anti-mouse IgG antibody (Sigma) conjugated with HRP diluted in 1% (v/v) BSA-containing PBS at a ratio of 1:5,000 (v/v) was added in an amount of 100 ul to each well to react at a room temperature for 1 hour and then, the plate was washed five times with PBST. Lastly, 100 ul (microliter) of TMB substrate (Cell Signaling) was added to each well of the plate to induce color development for 3 min. and then, the reaction was ceased by the addition of 100 ul of Stop solution (Cell Signaling) and OD450 values were measured on a plate reader (Molecular Devices).

[1] = target: T2, recombinant hAng-2 (C-His, R&D Systems) (human, UniProt O15123 19-496); assay: SPR, BIAcore T100; hAng-2 (C-His) captured by anti-His antibody on CM5, antibody as analyte
T2 construct: Bought protein; also called human Ang-2 protein; C-terminal histidine-tagged human Ang2 (R&D Systems); not shown: C-terminal His tag
T2 sequence: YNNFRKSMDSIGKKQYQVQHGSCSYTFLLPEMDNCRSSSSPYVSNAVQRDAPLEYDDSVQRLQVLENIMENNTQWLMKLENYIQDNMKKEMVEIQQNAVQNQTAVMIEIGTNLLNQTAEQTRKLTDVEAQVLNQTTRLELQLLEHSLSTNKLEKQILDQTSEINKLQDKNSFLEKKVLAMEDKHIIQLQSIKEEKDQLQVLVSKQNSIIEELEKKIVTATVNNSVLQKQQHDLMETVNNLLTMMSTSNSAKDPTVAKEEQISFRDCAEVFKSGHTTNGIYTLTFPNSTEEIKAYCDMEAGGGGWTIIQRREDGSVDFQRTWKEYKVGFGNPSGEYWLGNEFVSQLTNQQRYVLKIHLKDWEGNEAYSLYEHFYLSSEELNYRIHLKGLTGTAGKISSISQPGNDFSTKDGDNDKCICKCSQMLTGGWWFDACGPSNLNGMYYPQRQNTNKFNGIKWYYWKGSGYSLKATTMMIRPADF
Description: First, anti-His antibody was immobilized on a CM5 sensor chip (GE healthcare) up to 8,000 RU levels using a pH 5.0 acetate solution and an amine coupling kit (GE Healthcare). 6 μg/ml of a recombinant hAng-2 (C-His, R&D Systems) protein was flowed onto the chip to be captured at 100 to 200 RU levels.

[2] = target: T2, recombinant hAng-2 (C-His, R&D Systems); assay: SPR, BIAcore T100; hAng2 (C-His) captured by anti-His antibody on CM5, antibody as analyte
Description: The binding affinity (KD values) of the antibodies to human Ang2 protein was measured by an SPR method using a BIAcore T100 (GE Healthcare). 25 μg/ml anti-His antibody was immobilized on a CM5 sensor chip (GE healthcare) using a pH 5.0 acetate solution and an amine coupling kit (GE Healthcare). 6 μg/ml of a recombinant hAng2 (C-His, R&D Systems) protein was flowed onto the chip to be captured at 100 to 200 RU levels.

hTie2-Fc (R&D Systems) = target: T3, hTie2-Fc (R&D Systems) (human, UniProt Q02763 23-745); assay: Complex ELISA: plate coated with Tie2-Fc (4 ug/ml), 10D6 2 ug/ml without Ang2, anti-mouse IgG-HRP, OD450
T3 construct: Bought fusion protein; also called hTie-2/Fc fusion protein; not shown: Fc of human IgG1
T3 sequence (Q02763 23-745 limits assumed): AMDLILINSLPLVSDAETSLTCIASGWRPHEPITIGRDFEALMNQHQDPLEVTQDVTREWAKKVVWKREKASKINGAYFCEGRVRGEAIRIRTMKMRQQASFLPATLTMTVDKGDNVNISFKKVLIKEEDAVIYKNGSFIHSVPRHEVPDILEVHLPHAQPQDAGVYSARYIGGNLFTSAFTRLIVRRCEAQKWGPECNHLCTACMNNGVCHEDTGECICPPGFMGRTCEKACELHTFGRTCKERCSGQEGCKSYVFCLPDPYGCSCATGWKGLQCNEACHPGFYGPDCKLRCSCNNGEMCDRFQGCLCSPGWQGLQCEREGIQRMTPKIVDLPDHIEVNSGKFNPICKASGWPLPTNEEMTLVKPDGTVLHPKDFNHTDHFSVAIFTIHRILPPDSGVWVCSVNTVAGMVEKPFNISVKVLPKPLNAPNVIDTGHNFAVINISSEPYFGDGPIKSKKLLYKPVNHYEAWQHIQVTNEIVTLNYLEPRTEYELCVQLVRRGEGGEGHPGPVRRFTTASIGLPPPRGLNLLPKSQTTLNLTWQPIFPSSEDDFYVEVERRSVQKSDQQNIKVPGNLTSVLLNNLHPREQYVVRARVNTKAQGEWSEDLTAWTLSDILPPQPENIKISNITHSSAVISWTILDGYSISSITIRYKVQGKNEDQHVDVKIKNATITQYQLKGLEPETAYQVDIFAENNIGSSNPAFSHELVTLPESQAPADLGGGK
Description: as §1, with “0.25 μg/ml of Ang2 and 2 μg/ml of 10D6 antibody were added to each well of the plate, which was allowed to react at a room temperature for 2 hours and then washed five times with PBST.” left out

T1 sequence (P02769 25-607 limits assumed): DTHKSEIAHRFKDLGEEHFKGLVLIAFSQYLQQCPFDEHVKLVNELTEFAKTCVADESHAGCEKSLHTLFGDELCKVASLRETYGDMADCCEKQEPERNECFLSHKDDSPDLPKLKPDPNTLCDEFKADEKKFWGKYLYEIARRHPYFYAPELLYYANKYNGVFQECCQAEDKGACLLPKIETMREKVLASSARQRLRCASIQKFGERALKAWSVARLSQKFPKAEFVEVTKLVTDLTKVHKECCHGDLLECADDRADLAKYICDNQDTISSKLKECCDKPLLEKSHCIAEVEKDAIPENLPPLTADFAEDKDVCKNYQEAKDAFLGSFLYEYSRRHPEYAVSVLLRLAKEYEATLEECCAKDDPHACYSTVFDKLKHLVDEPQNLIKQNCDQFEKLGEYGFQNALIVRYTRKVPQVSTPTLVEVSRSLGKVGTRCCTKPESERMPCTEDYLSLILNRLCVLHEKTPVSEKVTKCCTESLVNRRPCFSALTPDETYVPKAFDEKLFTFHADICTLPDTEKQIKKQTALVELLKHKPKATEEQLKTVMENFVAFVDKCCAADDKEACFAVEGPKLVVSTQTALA

binding result (BSA): no binding (tested: 2 ug/ml) | Kd [1]: 8 nM | Kd [2]: 8 nM | koff [2]: 0.000193 s⁻¹ | kon [2]: 24100 M⁻¹ s⁻¹ | binding result (hTie2-Fc (R&D Systems)): no binding (tested: 2 ug/ml)
B1: SAIT-ANG2-AB-m10D6 (antibody, V domains shown)
VH: DVQLQESGPDLVKPSQSLSLTCTVTGYSITSDYAWNWIRQFPGNKLEWMGYINYSGNTDYNPSLKSRSSITRDTSKNQFFLQLNSVTTGDTATYYCARGNFEGAMDYWGQGTSVTVSS
VL: SIVMTQTPKFLLVSAGDRVTITCKASQSVSNDVAWYQQKPGQSPKLLIYYASNRYPGVPDRFTGSGYGTDFTFTISTVQAEDLAVYFCQQDYSSPWTFGGGTKLEIK
notes: Mouse monoclonal antibody purified from a hybridoma (KCLRF-BP-00295); it is not applied here; also called mouse antibody 10D6; 10D6 antibody
